Data: the nanobody polyreactivity screen of Harvey et al. (2022)

Assay: yeast display, Sf9 membrane polyspecificity reagent, FACS + sequencing; frameworks hold sequencing errors
Summary of the method: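 Genes from sorted yeast were amplified by colony PCR, read by MiSeq 2 × 250 sequencing and filtered on CDR length. These cells carried a synthetic nanobody library in Saccharomyces cerevisiae BJ5465 and were sorted by FACS into low and high (top ~1%) gates on anti-HA and streptavidin fluorescence. Polyreactivity is labelled according to the gate of origin.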

Sequence	polyreactivity (PSR sort gate)
QVQLVESGGGIVQAGGSLPLSCAASGSTYNSYAMGWYRQAPGKDRELVAGISYIGGRTYYADSVKGRFTISRDNAKNTVYLQMNSLKPEDTAVYYCAAVYWYGRRKYYSWGQGTQVTVSS	high polyreactivity
QVQLVESGGGIVQAGGSLPLSSAASGSTFPYNTMGWYIQAPGKERELVAAISQRGGSTYADSVKGRFTISRDNAKNTVYLEMNSLKPEDTAVYYCNKRNVYYSYPFDYDYWGQGTQVTVCS	low polyreactivity
QVQLVESGGGIVQAGGSLRLRCAASGSIFRFNAMGWYRQAPGKERDLVAAISSSGSSTYYADSVKGRFTISRDNSKNTVYLQMNSLKPEDTAVYYSAARNSYGNWRYYYWGQGTQVTVSS	high polyreactivity
QVQLVESGGGIVQAGGSLRLSCAASGFTCGPYAMGWYRQAPGKERELVATIRSGDSTNYADSVKGRFTISRDNAKNTVYLQMNSLKPEDTAVYYCARDARASARRKRYDYWGQGTQVTVSS	low polyreactivity
QVQLVESGGGIVQAGGSLRLSCAASGFTFGAYAMGWSRQAPGKEGELVASISWSGGSTYYADSVKGRFTISRDHAKNTVNLQMNSLKPEDTAVYYCNKDFVYPDDDGLFDYWGQGTQETVSS	low polyreactivity
QVQLVESGGGIVQAGGSLRLSCAASGFTFYRYAMGWYRQAPGKERELVAAITWSGGSTYYADSVKGRFTISRDNAKNTVYLQMNSLKPEDTAVYYCAADIYDGGFDYWGQGTQVTVSS	low polyreactivity
QVQLVESGGGIVQAGGSLRLSCAASGGTFYYYAMGWYRQAPGKERELVATISYSGASTYYADSVKGRFTISRDNAKNTVYLQMNSLKPEDTAVYYCKARPYNHRYRAWMDYWGQGTQVTVSS	high polyreactivity
QVQLVESGGGIVQAGGSLRLSCAASGIIFGYYAMGWYRQAPGKERELVAAISRRGGSTYYADSVKGRFTISRDNATITVYLQMHSLKPEDSAVSYCAAVELRLSTPDMESWVQGTQVTVSS	high polyreactivity
QVQLVESGGGIVQAGGSLRLSCAASGIIFKAYAMGWYRKAPGKERELVAAITTGSTTYADSVKGRFTISRDNAKNTVYLQMNSLKPEDTAVYYCNARFDWGWPGYEYDYCGQGTQVTVSS	low polyreactivity
QVQLVESGGGIVQAGGSLRLSCAASGIIFSWYAMGWYRQAPGKERELVAAISKGGGSTYYADSVKGRFTISRDNAKNTVYLQMNSLKPEDTAVYYCAAASSYGYGYWGQGTQVTVSS	high polyreactivity
QVQLVESGGGIVQAGGSLRLSCAASGITFEYNAIGWYRQAPGKARELVAAISQSSGSTYYADSVKGRFTISRDYAKNTVYLQMNSLKPEDTAVYYCNADTIIYEGGYWGQGTQVTVSS	low polyreactivity
QVQLVESGGGIVQAGGSLRLSCAASGLISRVYAMGWSRQAPGKEWELVAAISSGGSTNYADSVKGRFTISRDNAKNTVYLQMNSLKPEETAGYYCAARGRRTGGHYNYWGQGTQETVSS	low polyreactivity
QVQLVESGGGIVQAGGSLRLSCAASGNTFGYYAIGWYRQAPGKERELVAAINFGGDTSYADSVKGRFTISRDNAKNTVYLQMNSLKPEDTAVYYCNRVPSWRIDYDYWGQGTQVTVSS	low polyreactivity
QVQLVESGGGIVQAGGSLRLSCAASGNTFYTYAMGWYRQAPGKERELVAAITSGGRTYADSVKGRFTISRDNATNTVYLQMNSLKPEDTAVYYCAADFPGFYYVYPGDYWGQGTQVTVSS	low polyreactivity
QVQLVESGGGIVQAGGSLRLSCAASGRIFGYYVMGWSRQAPGKESELVAAINYDGGSTYYADSVKGRFTISRDNAKNTVYLQMISLKPVDTAVYYWAAAIGNSEYGWRYDYWGQGTQVTVSS	low polyreactivity
QVQLVESGGGIVQAGGSLRLSCAASGRIFIWYDMGWYRQAPGKERELVAAITQSDDITYYADSVKGRFTISLDNAKNTVYLQMNSLKPEDTAVYYCAVDKPYPYRIIIWYEYDYWGQGTQVSVSS	low polyreactivity
QVQLVESGGGIVQAGGSLRLSCAASGRIFPYYDMGWYRQAPGKERELVAAITSSGSTFYADSVKGRFTISRDNAKNTVYLQMNSLKPEDTAVYYCNTRDIRVRPYDYWGQGTQVTVSS	low polyreactivity
QVQLVESGGGIVQAGGSLRLSCAASGRIFSGNAMGWYRQAPGKERELVATISRRGGSTYYADSVKGRFTISRDNAKNTVYLLMNSLKPEDTAVYYCAVDPYAWTKWSTYNYWGQGTQVTVSS	high polyreactivity
QVQLVESGGGIVQAGGSLRLSCAASGRIFVRNAMVWYRQAPGKERELVAAISTNGGSTRYADSVKGRFTISRDNAKNTVYLQMNSLKPEDTAVYYCNAYYSHSPRYLKYDYWGLGTQVTVSS	high polyreactivity
QVQLVESGGGIVQAGGSLRLSCAASGRIFYGYTMGWYRQAPGKERELVASIDYSTGRTYYADSVKGRFTISRDNAKNTVYLLMNSLKPEDTAVYYCNADPNYSFLRYDYWGQGTQVTVSS	high polyreactivity
QVQLVESGGGIVQAGGSLRLSCAASGRIFYYYAMGWYRQAPGKESELVAAISRSGGRTYYADSVKGRFTISRDNAKNTVYLHMNSLKPEDTAVYYCNVVRQGGTLGYDYWGQGTQVTVSS	high polyreactivity
QVQLVESGGGIVQAGGSLRLSCAASGRISAYNAMGWYRQAPGKERELVAAITYDGGSTYYADSVKGRFTISRDNAKNTVYLHMNSLKPEDTAVYYCNAGADSVSFRDGGITTYDYWGQGTQVTVSS	low polyreactivity

Sequence	polyreactivity (PSR sort gate)
QVQLVESGGGIVQAGGSLRLSCAASGRNFGPYTMGWYRQAPGKERELVATISYSGSTTYYSDSVKGRFTISRDNAKNTVYLQMNSLKPEDTAVYYCNAQYYVFITFDYWGQGTKVTVSS	high polyreactivity
QVQLVESGGGIVQAGGSLRLSCAASGRNFIHYAMGGYRQAPGKERELVAAISWGGGRTYYADSEKGRFTISRDNAKNTVYLQMNSLKPEDTAVYYCAAAGRGSGYDYWGQGTQVTVSS	high polyreactivity
QVQLVESGGGIVQAGGSLRLSCAASGRTFDWYAMGWSRQAPGKERELVAAIDSIGGDTYYADSVKGRFTISRDNAKNTVYLQMNSLKPEDTAVYYCAALPWYDWEYEYWGQGTQVTVSS	high polyreactivity
QVQLVESGGGIVQAGGSLRLSCAASGRTFFHYAMGWYRQAPGKERELVAGISSGGRTKYADSVKGRFTISRDNAKNTVYLQMNSLKPEDTAVYYCAASYIVWLTRGAPRKRFDYWGQGTQVTVSS	high polyreactivity
QVQLVESGGGIVQAGGSLRLSCAASGRTFNYYAMGWYRQAPGKEREWVAAISSSGGRTYYADSVKGRFTISRDNAKNTVYLQMNSLKPEDTAVYYCAATGGGYKHWFDYWGQGTQVTVSS	low polyreactivity
QVQLVESGGGIVQAGGSLRLSCAASGRTFRKNAMAWYRQAPGKERELVAAISASGTSTNYADSVKGRFTISRDNAKNTVYLQMISLIPEDTSVYYCDARSYGIYDYWGQGTQVTVSS	high polyreactivity
QVQLVESGGGIVQAGGSLRLSCAASGRTFSIYAMGWYRQAPGKERELVASITNSDGSTYYADSVKGRFTISRDNAKNTVYLQMNSLKPEDTAVYYCNDDSGISRVKYGYWGQATQVTVSS	low polyreactivity
QVQLVESGGGIVQAGGSLRLSCAASGRTFTVYAMGWYRQARGTARELVAAINYSVGSTYYADSVKGRFTISRDNAKNTVYLQMNSLNPEDTAVYYCAADLYHFSYSNSYIRYDYWGQGTQVTVSS	low polyreactivity
QVQLVESGGGIVQAGGSLRLSCAASGRTFWRNTMGWYRQAPGKETELVAAINKPGGSTYYADSVKGRFTISRDNAKNTVYLQMNSLKPEDTAVYYCNALTYQGRHSARYDYWGQGTQVTVSS	high polyreactivity
QVQLVESGGGIVQAGGSLRLSCAASGRTFYRNAMGWYRPAPGKERELFAVISLNGGRTYYADSVKGRFTISRDNAKNTVYLQMNSLKPEDTAVYYCNKLTGPVFTRGFYYWGQGTQVTVSS	high polyreactivity
QVQLVESGGGIVQAGGSLRLSCAASGRTYPGYAMGWYRQAPGKERELVATITFSDGSTYYADSVKGRFTISRDNAKNTVYLQMNSLKPVDTAVYYCNARRSYFLRYGVNYWGQGTQVTVSS	low polyreactivity
QVQLVESGGGIVQAGGSLRLSCAASGSIFGINAMGWNRQAPGKERELVAAITSRGGRTYYADSVKGRFTISRDNAKNTVYLQMNSLKPEDTAVYYCAAATPYLIRYYYWGQGTQVTVSS	high polyreactivity
QVQLVESGGGIVQAGGSLRLSCAASGSIFGSYAMGWYRQAPGKERELVAAITRSGGRTYYADSVKGRFTISRDNAKNTVYLQMNSLKPEDTAVYYCNAKLKLPSGGDYWGQGTQVTVSS	high polyreactivity
QVQLVESGGGIVQAGGSLRLSCAASGSIFYVYAMGWYRQAPGKERELVAAIYSGASTYYADSVKGRFTISRDNAKNTVYLQMNSLKPEDTAVYYCAKRWRRRFVDVWSLYDYWGQGTQVTVSS	low polyreactivity
QVQLVESGGGIVQAGGSLRLSCAASGSIIGPNTMGWYRQAPGKERELVAAIRGGGSTNYADSVKGRFTISRDNAKNTVYLQMNSLKPEDTAVYYCNATWNLFPGVLDRYDYWGQGTQVTVSS	low polyreactivity
QVQLVESGGGIVQAGGSLRLSCAASGSIINGNAMGWDRQAPGKERELVAAITRRGGSTYYADSVKGRFTISRDNAKNTVYLQMNSLKPEDTAVYYCAAEDWLYKRPYKERIVQFYYWGQGTQVTVSS	low polyreactivity
QVQLVESGGGIVQAGGSLRLSCAASGSISAYYAMGWYRQAPGNERELVAAISWNGGRTYYADSVKGRFTISRDNAKNSVYLQMNSLKPEDTAVYYCAASPYYVVSTGGYDYDYWGQGTQVTVSS	high polyreactivity
QVQLVESGGGIVQAGGSLRLSCAASGSISSAYAMGWYRQAPGKERELVAVITSGGSTNYADSVKGRFTISRDNAKNTVYLQMNSLKQEDTAVYYCATPVASVTGYDYWGLGTQVTVSS	low polyreactivity
QVQLVESGGGIVQAGGSLRLSCAASGSTFNANGMGWYRQAPGKERELVAAISWRGSTYYADSVKGRFTISRDNAKNTVYLQMNSLKPEDTAVYYCAAYRYSWSYQYRYGYWGQGTQVTVSS	high polyreactivity
QVQLVESGGGIVQAGGSLRLSCAASGSTFRGNDMGWYRQAPGKERELVASIDWSGGSTYYADSVKGRFTISRDNAKNTVYLQMNSLKPEDTAVYYCAADTSYWYDYYIDYVGYYYWGQGTQVTVAS	high polyreactivity
QVQLVESGGGIVQAGGSLRLSCAASGSTFRGYAMGWYRQAPGKETELVAAITSRGTRTYYADSVKGRFTISRDNSKNTVSLQMNSLKPEDTAVYYCNVVSDIRLYYRYAYDYWGQGTQVTVSS	high polyreactivity
